Assay results as given in the supplement of paper PMC9112550, “Optimization of the antimicrobial peptide Bac7 by deep mutational scanning” (BMC Biology, 2022).

Test system: Escherichia coli TOP10
Assay: shrunken log2 fold change of peptide-encoding DNA abundance (4.5 h post-induction vs induction); higher = less antimicrobial activity (less host growth inhibition)
Conditions: time post-induction: 4.5 h; library: site-saturation at positions 5, 18, 19, 20
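Also: peptides expressed intracellularly from a pBAD plasmid library in pooled LB shake-flask culture, induced with 0.3% L-arabinose, DNA abundance read by NGS, three biological replicates, DESeq2 with apeglm shrinkage.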

Sequence | shrunken log2 fold change
RRIRARPPRLPRPRPRPDCPPRP | 0.337
RRIRARPPRLPRPRPRPDEVPRP | 0.446
RRIRARPPRLPRPRPRPDFPPRP | 0.102
RRIRARPPRLPRPRPRPDGKPRP | 0.154
RRIRARPPRLPRPRPRPDHMPRP | -0.328
RRIRARPPRLPRPRPRPDIYPRP | 0.115
RRIRARPPRLPRPRPRPDKMPRP | 0.104
RRIRARPPRLPRPRPRPDNYPRP | 0.0577
RRIRARPPRLPRPRPRPDPRPRP | 0.254
RRIRARPPRLPRPRPRPDPWPRP | 0.308
RRIRARPPRLPRPRPRPDQCPRP | 0.0213
RRIRARPPRLPRPRPRPDSFPRP | -0.0867
RRIRARPPRLPRPRPRPDSLPRP | 0.0733
RRIRARPPRLPRPRPRPDTCPRP | -0.162
RRIRARPPRLPRPRPRPDTTPRP | 0.0242
RRIRARPPRLPRPRPRPDVKPRP | 0.395
RRIRARPPRLPRPRPRPDWSPRP | 0.048
RRIRARPPRLPRPRPRPDYWPRP | 0.139
RRIRARPPRLPRPRPRPEAIPRP | 0.839
RRIRARPPRLPRPRPRPEANPRP | 1.69
RRIRARPPRLPRPRPRPECNPRP | 0.807
RRIRARPPRLPRPRPRPEEAPRP | 3.84
RRIRARPPRLPRPRPRPEEEPRP | 0.178
RRIRARPPRLPRPRPRPEFHPRP | 0.847
RRIRARPPRLPRPRPRPEFNPRP | 1.05
RRIRARPPRLPRPRPRPEGNPRP | 0.295
RRIRARPPRLPRPRPRPEICPRP | 1.01
RRIRARPPRLPRPRPRPEIMPRP | 0.43

Sequence | shrunken log2 fold change
RRIRARPPRLPRPRPRPEIQPRP | 1.71
RRIRARPPRLPRPRPRPEISPRP | 0.81
RRIRARPPRLPRPRPRPEPDPRP | -0.0215
RRIRARPPRLPRPRPRPEPRPRP | 0.679
RRIRARPPRLPRPRPRPEQMPRP | 1.06
RRIRARPPRLPRPRPRPEQYPRP | -0.0243
RRIRARPPRLPRPRPRPERHPRP | 0.58
RRIRARPPRLPRPRPRPERMPRP | 0.618
RRIRARPPRLPRPRPRPERTPRP | 0.143
RRIRARPPRLPRPRPRPESAPRP | 0.858
RRIRARPPRLPRPRPRPESIPRP | -0.0955
RRIRARPPRLPRPRPRPETMPRP | 0.0902
RRIRARPPRLPRPRPRPEWDPRP | 1.13
RRIRARPPRLPRPRPRPFCFPRP | 0.42
RRIRARPPRLPRPRPRPFDWPRP | 0.608
RRIRARPPRLPRPRPRPFECPRP | -0.00737
RRIRARPPRLPRPRPRPFEQPRP | -0.072
RRIRARPPRLPRPRPRPFEYPRP | -0.0276
RRIRARPPRLPRPRPRPFFCPRP | 0.2
RRIRARPPRLPRPRPRPFFFPRP | 0.419
RRIRARPPRLPRPRPRPFGCPRP | 0.128
RRIRARPPRLPRPRPRPFGEPRP | 0.15
RRIRARPPRLPRPRPRPFHWPRP | 0.277
RRIRARPPRLPRPRPRPFIDPRP | -0.554
RRIRARPPRLPRPRPRPFKAPRP | 0.0354
RRIRARPPRLPRPRPRPFKIPRP | -0.0575
RRIRARPPRLPRPRPRPFKPPRP | -0.0739
